Experiments:
[1] = molecular target: Cynomolgus CD16A fused to IgG Fc (cynomolgus; human) (UniProt Q8SPW2); experiment: ELISA, coated antigen-IgG Fc
[2] = molecular target: Human CD16A^(48R, 158F) fused to IgG Fc (human) (UniProt P08637); experiment: ELISA, coated antigen-IgG Fc
[3] = molecular target: Human CD16A^(48R, 158V) fused to IgG Fc (human) (UniProt P08637); experiment: ELISA, coated antigen-IgG Fc
[4] = molecular target: human CD16B(NA1) ECD, mature form (without propeptide), fused to monomeric Fc (human) (UniProt O75015); experiment: ELISA, coated antigen-mFc
[5] = molecular target: human CD16A(48R, 158V) ECD fused to monomeric mFc.67 (human) (UniProt P08637); experiment: ELISA, coated antigen-mFc
[6] = molecular target: T1, CD16A on primary human NK cells (human, UniProt P08637); experiment: flow cytometry on primary human NK cells at 37 °C, with 10 mg/mL polyclonal human IgG; anti-His mAb and FITC goat anti-mouse IgG
T1 construct: full length, on the cell surface; also called FcgRIIIA on enriched human NK cells

[7] = molecular target: T1, CD16A on primary human NK cells; experiment: flow cytometry on primary human NK cells at 37 °C, without IgG; anti-His mAb and FITC goat anti-mouse IgG
[8] = molecular target: Human CD16B^H140Y fused to IgG Fc (human) (UniProt O75015); experiment: ELISA, coated antigen-IgG Fc
[9] = molecular target: human CD16B ECD mutant H140Y fused to monomeric mFc.67 (human) (UniProt O75015); experiment: ELISA, coated antigen-mFc, Protein L-HRP
[10] = molecular target: human CD16A(48R, 158V) ECD fused to monomeric mFc.67 (human) (UniProt P08637); experiment: ELISA, coated antigen-mFc, Protein L-HRP
[11] = molecular target: human CD16B ECD mutant H140Y fused to monomeric mFc.67 (human) (UniProt O75015); experiment: ELISA, coated antigen-mFc
[12] = molecular target: Human CD16B(NA1)^pr fused to IgG Fc (human) (UniProt O75015); experiment: ELISA, coated antigen-IgG Fc
[13] = molecular target: T2, mature ECD of CD16B(NA1) expressed on the CHO cell surface (human, UniProt O75015 17-200); experiment: binding to recombinant CHO cells
T2 construct: mature; not shown: membrane anchor: transmembrane domain of human EGFR or GPI anchor

[14] = molecular target: T3, propeptide-containing ECD of CD16B(NA1) expressed on the CHO cell surface (human, UniProt O75015 17-208); experiment: binding to recombinant CHO cells
T3 construct: extracellular domain; not shown: membrane anchor: transmembrane domain of human EGFR or GPI anchor

[15] = molecular target: T1, CD16A on primary human NK cells; experiment: flow cytometry on primary human NK cells at 37 °C, without IgG; anti-His mAb and FITC goat anti-mouse IgG; remark: listed apart in the source
Method: (§1) After the last staining step, the cells were washed again and resuspended in 0.2 mL of FACS buffer containing 2 μg/mL propidium iodide (PI) (Sigma, cat.: P4170) in order to exclude dead cells. […] For the calculation of KD, the equation for one-site-binding (hyperbola) was used.

[16] = molecular target: T4, recombinant EGFR expressed on CHO cells (specificity control) (UniProt P00533 25-1210, limits assumed); experiment: flow cytometry, MFI in cell binding to recombinant CHO cells; antigen EGFRTM anchored
T4 construct: whole, on cells; also called control EGFR antigen

[17] = molecular target: T1, CD16A on primary human NK cells; experiment: flow cytometry on primary human NK cells at 37 °C, without IgG; anti-His mAb and FITC goat anti-mouse IgG; remark: listed apart in the source
Method: as §1

[18] = molecular target: T2, mature ECD of CD16B(NA1) expressed on …; experiment: flow cytometry, MFI in cell binding to recombinant CHO cells; antigen EGFRTM anchored
[19] = molecular target: T3, propeptide-containing ECD of CD16B(NA1) …; experiment: as above
[20] = molecular target: T5, huCD16A (48R,158V), EGFRTM anchored (human, UniProt P08637;P00533); experiment: as above
T5 construct: extracellular domain;transmembrane domain; Expressed on recombinant CHO cells; one member of the group m39
T5 sequence (P08637 other isoform, or with tags, fused parts or gaps limits assumed): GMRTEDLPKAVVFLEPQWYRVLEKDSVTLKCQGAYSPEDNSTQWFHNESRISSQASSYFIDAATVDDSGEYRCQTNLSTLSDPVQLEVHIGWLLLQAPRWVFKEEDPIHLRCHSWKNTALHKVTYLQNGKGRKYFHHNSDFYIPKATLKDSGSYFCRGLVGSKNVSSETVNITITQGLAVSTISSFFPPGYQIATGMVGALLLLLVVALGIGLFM

Sequence of Human CD16A^(48R, 158V) fused to IgG Fc (human) (P08637 17-208 L66R/F176V): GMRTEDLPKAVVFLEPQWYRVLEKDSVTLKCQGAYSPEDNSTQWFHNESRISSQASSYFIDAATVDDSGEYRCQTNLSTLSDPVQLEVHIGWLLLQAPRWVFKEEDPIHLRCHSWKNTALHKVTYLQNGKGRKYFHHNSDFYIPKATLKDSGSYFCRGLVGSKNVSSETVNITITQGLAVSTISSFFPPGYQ
Sequence of human CD16A(48R, 158V) ECD fused to monomeric mFc.67 (human) (P08637 17-208 L66R/F176V): as above
Sequence of human CD16B ECD mutant H140Y fused to monomeric mFc.67 (human) (O75015 other isoform, or with tags, fused parts or gaps H140Y H140Y): as the sequence (P08637 17-208 L66R/F176V) above, with S49N, R50L, I90V, G131D, F187S counted along it
Sequence of Human CD16B^H140Y fused to IgG Fc (human) (O75015 other isoform, or with tags, fused parts or gaps H140Y H140Y limits assumed): as the sequence (P08637 17-208 L66R/F176V) above, with S49N, R50L, I90V, G131D, F187S counted along it
Sequence of Human CD16A^(48R, 158F) fused to IgG Fc (human) (P08637 17-208 L66R): as the sequence (P08637 17-208 L66R/F176V) above, with V160F counted along it
Sequence of Cynomolgus CD16A fused to IgG Fc (cynomolgus; human) (Q8SPW2 17-208): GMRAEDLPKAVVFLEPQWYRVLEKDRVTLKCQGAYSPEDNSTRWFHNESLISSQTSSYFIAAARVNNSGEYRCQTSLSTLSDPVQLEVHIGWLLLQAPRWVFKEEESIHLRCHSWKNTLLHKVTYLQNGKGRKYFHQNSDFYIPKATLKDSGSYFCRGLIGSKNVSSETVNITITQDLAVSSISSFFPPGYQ
T2 sequence (O75015 other isoform, or with tags, fused parts or gaps): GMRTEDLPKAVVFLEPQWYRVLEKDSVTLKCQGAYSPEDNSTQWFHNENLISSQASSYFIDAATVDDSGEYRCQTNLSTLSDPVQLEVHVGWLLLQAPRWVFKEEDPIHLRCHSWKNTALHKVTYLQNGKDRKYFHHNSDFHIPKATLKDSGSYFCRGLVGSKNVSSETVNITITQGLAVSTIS
T3 sequence (O75015 other isoform, or with tags, fused parts or gaps): as the sequence (P08637 17-208 L66R/F176V) above, with S49N, R50L, I90V, G131D, Y142H, F187S counted along it
T1 sequence (P08637 17-254 limits assumed): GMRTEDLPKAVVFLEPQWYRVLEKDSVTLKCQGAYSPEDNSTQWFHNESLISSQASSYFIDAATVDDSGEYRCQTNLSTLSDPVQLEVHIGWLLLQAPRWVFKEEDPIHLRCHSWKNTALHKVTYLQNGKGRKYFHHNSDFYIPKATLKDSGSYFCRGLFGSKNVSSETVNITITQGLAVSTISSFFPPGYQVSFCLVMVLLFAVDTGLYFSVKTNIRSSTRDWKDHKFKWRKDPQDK
Sequence of Human CD16B(NA1)^pr fused to IgG Fc (human) (O75015 other isoform, or with tags, fused parts or gaps limits assumed): as the sequence (P08637 17-208 L66R/F176V) above, with S49N, R50L, I90V, G131D, Y142H, F187S counted along it

EC50 [1] | EC50 [2] | EC50 [3] | EC50 [5] | EC50 [8] | Molecule | also measured
7.5 nM | 7.6 nM | 1.2 nM | 1 nM | – | scFv antibody comprising the variable heavy and light chain sequences of antibody 3G8 | EC50 [4]: 0.9 nM; EC50 (read off the curve) [6]: 20 nM; EC50 (read off the curve) [7]: 3 nM
1.6 nM | 2.4 nM | 1.8 nM | – | 1.7 nM | scFv CD16A (CD16-7) (scFv) scFv: QVQLVQSGAEVKKPGESLKVSCKASGYTFTNYYMHWVRQAPGQGLEWMGVIEPDGGRRTYAQKFQGRVTMTRDTSTSTVYMELSSLRSEDTAVYYCARGSAYYYDFADYWGQGTLVTVSSGGSGGSGGSGGSGGSGGSEIVLTQSPATLSLSPGERATLSCRGHQGVSGDVHWYQQKPGQAPRLLIYQANKRASGIPARFSGSGSGTEFTLTISSLEPEDFAVYYCQQWDNYSVTFGQGTKVEIKAAAGSHHHHHH | –
1.4 nM | 2.5 nM | 2.2 nM | – | 1.7 nM | scFv CD16A (CD16-4) (scFv) scFv: QVQLVQSGAEVKKPGESLKVSCKASGYSFSDFYIQWVRQAPGQGLEWMGIINPGGASTTYAQKFQGRVTMTRDTSTSTVYMELSSLRSEDTAVYYCARGSAYYYDFADYWGQGTLVTVSSGGSGGSGGSGGSGGSGGSSYVLTQPSSVSVAPGQTARITCGGYNIGRQSVHWYQQKPGQAPVLVIYQDSKRPSGIPERFSGSNSGNTATLTISGTQAMDEADYYCQVWDNYTVVFGGGTKLTVLAAAGSHHHHHH | –
– | – | – | – | – | BCMA-1/CD16-2 TandAb (CD16-2) (bispecific antibody) EVQLLESGGGLVQPGGSLRLSCAASGFTFSNYDMAWVRQAPGKGLEWVSSISTRGDITSYRDSVKGRFTISRDNSKNTLYLQMNSLRAEDTAVYYCARQDYYTDYMGFAYWGQGTLVTVSSGGSGGSGGSGGSSYVLTQPSSVSVAPGQTATISCGGHNIGSKNVHWYQQRPGQSPVLVIYQDNKRPSGIPERFSGSNSGNTATLTISGTQAMDEADYYCQVWDNYSVLFGGGTKLTVLGGSQVQLVQSGAEVKKPGESLKVSCKASGYTFTSYYMHWVRQAPGQGLEWMGAIEPMYGSTSYAQKFQGRVTMTRDTSTSTVYMELSSLRSEDTAVYYCARGSAYYYDFADYWGQGTLVTVSSGGSGGSGGSGGSAIQMTQSPSSLSASVGDRVTITCRASEDIYNGLAWYQQKPGKAPKLLIYGASSLQDGVPSRFSGSGSGTEFTLTISSLQPEDEATYYCAGPHKYPLTFGGGTKVEIK | EC50 [9]: 1.2 nM; EC50 [10]: 1.1 nM
– | – | – | 0.6 nM | – | EGFR-1/CD16-1 TandAb (CD16-1) (bispecific antibody) QVQLQESGPGLVKPSETLSLTCTVSGGSVSSGSYYWSWIRQPPGKGLEWIGYIYYSGSTNYNPSLKSRVTISVDTSKNQFSLKLSSVTAADTAVYYCARNPISIPAFDIWGQGTMVTVSSGGSGGSGGSSYVLTQPSSVSVAPGQTATISCGGHNIGSKNVHWYQQRPGQSPVLVIYQDNKRPSGIPERFSGSNSGNTATLTISGTQAMDEADYYCQVWDNYSVLFGGGTKLTVLGGSGGSQVQLVQSGAEVKKPGESLKVSCKASGYTFTSYYMHWVRQAPGQGLEWMGIINPSGGSTSYAQKFQGRVTMTRDTSTSTVYMELSSLRSEDTAVYYCARGSAYYYDFADYWGQGTLVTVSSGGSGGSGGSQPVLTQPPSVSVAPGKTARITCGGNNIGSKSVHWYQQKPGQAPVLVIYYDSDRPSGIPERFSGSNSGNTATLTISRVEAGDEADYYCQVWDTSSDHVLFGGGTKLTVLAAAGSHHHHHH | EC50 [11]: 0.5 nM
1.4 nM | 0.8 nM | 1.2 nM | – | 1.1 nM | scFv CD16A (CD16-5) (scFv) scFv: QVQLVQSGAEVKKPGESLKVSCKASGYTFSSYYMHWVRQAPGQGLEWMGAIEPRGVRISYAQKFQGRVTMTRDTSTSTVYMELSSLRSEDTAVYYCARGSAYYYDFADYWGQGTLVTVSSGGSGGSGGSGGSGGSGGSSYVLTQPSSVSVAPGQTARITCGGHNIGSTNVHWYQQKPGQAPVLVIYQDSKRPSGIPERFSGSNSGNTATLTISGTQAMDEADYYCQVWDNYSVQFGGGTKLTVLAAAGSHHHHHH | EC50 [12]: 24.9 nM
1.4 nM | 1.2 nM | 1.2 nM | – | 1.3 nM | scFv CD16A (CD16-3) (scFv) scFv: QVQLVQSGAEVKKPGESLKVSCKASGYTFTNYYMQWVRQAPGQGLEWMGVINPGGGSTSYAQKFQGRVTMTRDTSTSTVYMELSSLRSEDTAVYYCARGSAYYYDFADYWGQGTLVTVSSGGSGGSGGSGGSGGSGGSSYVLTQPSSVSVAPGQTARITCGGHNIGSQSVHWYQQKPGQAPVLVIYQDSKRPSGIPERFSGSNSGNTATLTISGTQAMDEADYYCQVWDNYSVVFGGGTKLTVLAAAGSHHHHHH | –
16.2 nM | 25.7 nM | 14.4 nM | – | 9.5 nM | scFv CD16A (CD16-1) (scFv, also called LSIV21 scFv) scFv: QVQLVQSGAEVKKPGESLKVSCKASGYTFTSYYMHWVRQAPGQGLEWMGIINPSGGSTSYAQKFQGRVTMTRDTSTSTVYMELSSLRSEDTAVYYCARGSAYYYDFADYWGQGTLVTVSSGGSGGSGGSGGSGGSGGSSYVLTQPSSVSVAPGQTATISCGGHNIGSKNVHWYQQRPGQSPVLVIYQDNKRPSGIPERFSGSNSGNTATLTISGTQAMDEADYYCQVWDNYSVLFGGGTKLTVLAAAGSHHHHHH | binding result [13]: no binding; binding result [14]: no binding; EC50 (read off the curve) [15]: ~40 nM; binding result [16]: no binding
2.5 nM | 2.8 nM | 1.5 nM | 1.6 nM | 1.2 nM | scFv CD16A (CD16-2) (scFv, also called CD16-2 scFv) scFv: QVQLVQSGAEVKKPGESLKVSCKASGYTFTSYYMHWVRQAPGQGLEWMGAIEPMYGSTSYAQKFQGRVTMTRDTSTSTVYMELSSLRSEDTAVYYCARGSAYYYDFADYWGQGTLVTVSSGGSGGSGGSGGSGGSGGSSYVLTQPSSVSVAPGQTATISCGGHNIGSKNVHWYQQRPGQSPVLVIYQDNKRPSGIPERFSGSNSGNTATLTISGTQAMDEADYYCQVWDNYSVLFGGGTKLTVLAAAGSHHHHHH | EC50 [11]: 1.3 nM; binding result [13]: no binding; binding result [14]: no binding; EC50 (read off the curve) [6]: ~30 nM; EC50 (read off the curve) [17]: ~10 nM; binding result [16]: no binding
– | – | – | – | – | EGFR-1 scFv (scFv, also called scFv EGFR (EGFR-1); control scFv) scFv: QVQLQESGPGLVKPSETLSLTCTVSGGSVSSGSYYWSWIRQPPGKGLEWIGYIYYSGSTNYNPSLKSRVTISVDTSKNQFSLKLSSVTAADTAVYYCARNPISIPAFDIWGQGTMVTVSSGGSGGSGGSGGSGGSGGSQPVLTQPPSVSVAPGKTARITCGGNNIGSKSVHWYQQKPGQAPVLVIYYDSDRPSGIPERFSGSNSGNTATLTISRVEAGDEADYYCQVWDTSSDHVLFGGGTKLTVLAAAGSHHHHHH | binding result [18]: no binding; binding result [19]: no binding; binding result [20]: no binding

Source: patent US20210169936A1 (AFFIMED, published 2021)
